Experimental data taken from IntAct's records for PubMed 16525419.

B1: Nephrin (Homo sapiens), O60500 (parent)
chain: MALGTTLRASLLLLGLLTEGLAQLAIPASVPRGFWALPENLTVVEGASVELRCGVSTPGSAVQWAKDGLLLGPDPRIPGFPRYRLEGDPARGEFHLHIEACDLSDDAEYECQVGRSEMGPELVSPRVILSILVPPKLLLLTPEAGTMVTWVAGQEYVVNCVSGDAKPAPDITILLSGQTISDISANVNEGSQQKLFTVEATARVTPRSSDNRQLLVCEASSPALEAPIKASFTVNVLFPPGPPVIEWPGLDEGHVRAGQSLELPCVARGGNPLATLQWLKNGQPVSTAWGTEHTQAVARSVLVMTVRPEDHGAQLSCEAHNSVSAGTQEHGITLQVTFPPSAIIILGSASQTENKNVTLSCVSKSSRPRVLLRWWLGWRQLLPMEETVMDGLHGGHISMSNLTFLARREDNGLTLTCEAFSEAFTKETFKKSLILNVKYPAQKLWIEGPPEGQKLRAGTRVRLVCLAIGGNPEPSLMWYKDSRTVTESRLPQESRRVHLGSVEKSGSTFSRELVLVTGPSDNQAKFTCKAGQLSASTQLAVQFPPTNVTILANASALRPGDALNLTCVSVSSNPPVNLSWDKEGERLEGVAAPPRRAPFKGSAAARSVLLQVSSRDHGQRVTCRAHSAELRETVSSFYRLNVLYRPEFLGEQVLVVTAVEQGEALLPVSVSANPAPEAFNWTFRGYRLSPAGGPRHRILSSGALHLWNVTRADDGLYQLHCQNSEGTAEARLRLDVHYAPTIRALQDPTEVNVGGSVDIVCTVDANPILPGMFNWERLGEDEEDQSLDDMEKISRGPTGRLRIHHAKLAQAGAYQCIVDNGVAPPARRLLRLVVRFAPQVEHPTPLTKVAAAGDSTSSATLHCRARGVPNIVFTWTKNGVPLDLQDPRYTEHTYHQGGVHSSLLTIANVSAAQDYALFTCTATNALGSDQTNIQLVSISRPDPPSGLKVVSLTPHSVGLEWKPGFDGGLPQRFCIRYEALGTPGFHYVDVVPPQATTFTLTGLQPSTRYRVWLLASNALGDSGLADKGTQLPITTPGLHQPSGEPEDQLPTEPPSGPSGLPLLPVLFALGGLLLLSNASCVGGVLWQRRLRRLAEGISEKTEAGSEEDRVRNEYEESQWTGERDTQSSTVSTTEAEPYYRSLRDFSPQLPPTQEEVSYSRGFTGEDEDMAFPGHLYDEVERTYPPSGAWGPLYDEVQMGPWDLHWPEDTYQDPRGIYDQVAGDLDTLEPDSLPFELRGHLV

Columns and labels:
nck1_human NCK1, P16333 = variants of: B1; conditions: with nck1_human NCK1, P16333
nck2_human NCK2, O43639 [1] = variants of: B1; conditions: with nck2_human NCK2, O43639
Chain of nck2_human NCK2, O43639 (O43639 whole entry): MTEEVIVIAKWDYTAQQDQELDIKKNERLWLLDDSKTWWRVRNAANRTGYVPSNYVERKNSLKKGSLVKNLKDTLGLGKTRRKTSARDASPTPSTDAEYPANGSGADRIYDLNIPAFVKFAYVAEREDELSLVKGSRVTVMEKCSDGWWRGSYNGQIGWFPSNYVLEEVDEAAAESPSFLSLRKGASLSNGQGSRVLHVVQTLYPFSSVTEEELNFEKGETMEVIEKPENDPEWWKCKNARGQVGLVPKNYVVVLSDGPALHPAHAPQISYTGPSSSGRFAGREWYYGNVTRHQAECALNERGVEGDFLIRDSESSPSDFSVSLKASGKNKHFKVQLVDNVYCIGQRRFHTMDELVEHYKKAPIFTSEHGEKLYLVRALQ

wasp_mouse Was, P70315 = variants of: B1; conditions: with wasp_mouse Was
Chain of wasp_mouse Was, P70315 (P70315 whole entry): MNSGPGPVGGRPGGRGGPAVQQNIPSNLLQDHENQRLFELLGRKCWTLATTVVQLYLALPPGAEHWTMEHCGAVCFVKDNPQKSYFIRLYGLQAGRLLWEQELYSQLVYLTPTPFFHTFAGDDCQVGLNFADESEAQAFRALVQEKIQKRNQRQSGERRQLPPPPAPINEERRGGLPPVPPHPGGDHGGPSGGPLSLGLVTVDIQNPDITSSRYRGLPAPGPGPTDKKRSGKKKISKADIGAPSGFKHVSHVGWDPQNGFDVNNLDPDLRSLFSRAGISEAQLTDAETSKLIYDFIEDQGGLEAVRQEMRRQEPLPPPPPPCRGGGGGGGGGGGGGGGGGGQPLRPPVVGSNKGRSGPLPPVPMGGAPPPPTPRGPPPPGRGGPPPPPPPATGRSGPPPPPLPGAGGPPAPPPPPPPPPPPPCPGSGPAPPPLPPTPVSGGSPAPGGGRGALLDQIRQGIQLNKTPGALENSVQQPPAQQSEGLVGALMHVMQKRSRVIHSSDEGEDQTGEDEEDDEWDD

nck2_human NCK2, O43639 [2] = variants of: B1; conditions: with nck2_human NCK2, O43639; remark: listed apart in the source

Row | effect of a mutation on the interaction (nck1_human NCK1, P16333) | effect of a mutation on the interaction (nck2_human NCK2, O43639 [1]) | effect of a mutation on the interaction (wasp_mouse Was, P70315) | effect of a mutation on the interaction (nck2_human NCK2, O43639 [2]) | Variant
1 | decreasing interaction | – | – | – | Y1193F;Y1217F
2 | decreasing interaction | disrupting interaction | disrupting interaction | disrupting interaction | Y1176F;Y1193F;Y1217F
3 | decreasing interaction | – | – | – | Y1176F;Y1217F
